Data published in PMC3807213 (Journal of molecular biology, 2012).

B1: EcoP15I modification (Mod) subunit (enzyme, UniProt P12364 1-644, looked up)
chain: MKKETIFSEVETANSKQLAVLKANFPQCFDKNGAFIQEKLLEIIRASEVELSKESYSLNWLGKSYARLLANLPPKTLLAEDKTHNQQEENKNSQHLLIKGDNLEVLKHMVNAYAEKVKMIYIDPPYNTGKDGFVYNDDRKFTPEQLSELAGIDLDEAKRILEFTTKGSSSHSAWLTFIYPRLYIARELMREDGTIFISIDHNEFSQLKLVCDEIFGEQNHVGDLVWKNATDNNPSNIAVEHEYIIVYTKNKEQLISEWKSNISDVKNLLVNIGEEFASKYTGNELQEKYTQWFREHRSELWPLDRYKYIDKDGIYTGSQSVHNPGKEGYRYDIIHPKTKKPCKQPLMGYRFPLDTMDRLLSEEKIIFGDDENKIIELKVYAKDYKQKLSSVIHLDGRVATNELKELFPEMTQPFTNAKTIKLVEDLISFACDGEGIVLDFFAGSGTTAHTVFNLNNKNKTSYQFITVQLDEPTKDKSDAMKHGYNTIFDLTKERLIRASKKNRDQGFKVYQLMPDFRAKDESELTLSNHTFFDDVVLTPEQYDTLLTTWCLYDGSLLTTPIEDVDLGGYKAHLCDGRLYLIAPNFTSEALKALLQKVDSDKDFAPNKVVFYGSNFESAKQMELNEALKSYANKKSIELDLVVRN
B2: EcoP15I restriction (Res) subunit (enzyme, UniProt Q5ZND2 1-970, looked up)
chain: MSKGFTLEKNLPHQKAGVDAVMNVFVSATPHLTDNVAVRLLANPELKLSEQQYYNNIKNVQAFNGIAHSKDNHNAKSNIIDVSMETGTGKTYTYIKTIFDLNKSFGINKFIIIVPTLSIKAGTVNFLKSDALKEHFRDDYKRELRTYVVESQKNAGKNTKSYMPQAIHDFVEASNFNKKYIHVLVINSGMINSKSLTDTYDTGLLDNQFNTPVDALRAVKPFIIIDEPHRFPTGKKTWENIEKFNAQYIIRYGATFSEGYKNLVYRLTAVDAFNDDLVKGIDAYIEDIVGDGNANLKFVKSDGKEATFELNENNNKKSFKLAKGESLSKTHSAIHDLTLDALNKSTAVLSNGIELKIGSSINPYSYDQTLADNMMRKAVKEHFKLEKELLTQRPRIKPLTLFFIDDIEGYRDGNDISGSLKTKFEEYVLAEANELLKTEQDAFYKNYLEKTVTNISSVHGGYFSKDNSDKDDKIEQEINEILHDKELLLSLDNPRRFIFSKWTLREGWDNPNVFQICKLRSSGSTTSKLQEVGRGLRLPVNEYMCRVKDRNFTLKYYVDFTEKDFVDSLVKEVNESSFKERVPSKFTQELKEQIMAQYPELSSRALMNELFNDEIIDDNDNFKDSDAYSRLKSKYPAAFPIGVKPGKIKKATDGKRRTKMRVGKFSELKELWDLINQKAVIEYKINSESEFLSIFKSFMLEETERFTKSGVHTRIDKIYIHNDMAMSKSIVSDDDDFAKLNTMSYREFLDNLSQTIFVKHGTLHKVFCDIKDTINITEYLNIQTIRKIKSGFSKYLLNNSFNKFSLGYNLISGSIHPTKFTNADGNPLGEVLSSDLGVLQDNAKAPLDTYLFEEVFYDSELERRNITDREIQSVVVFSKIPKNSIKIPVAGGYTYSPDFAYVVKTAEGDYLNFIIETKNVDSKDSLRLEEKRKIEHAQALFNQISQSVKVEFRTQFANDDIYQLIKSALP

What was measured:
[1] = biological target: the molecule itself; test: AUC
[2] = biological target: B1; test: AUC + other: dynamic light scattering

Row | stoichiometry N [2] | Binder | stoichiometry N [1]
1 |  | B1 | 2
2 | 1 Res per Mod (2:2) | B2 | 
